Assay results as given in PMC7211019 (2020).
Ends that are not written are not given here.

Tests used:
Par3 PDZ3 [1] = molecular target: T1, Par3 PDZ3 (rat, UniProt Q9Z340 582-685); experiment: FP; 5% 1,6-hexanediol
Par3 PDZ3 [2] = molecular target: T1, Par3 PDZ3; experiment: FP; 10% 1,6-hexanediol
Par3 PDZ3 [3] = molecular target: T1, Par3 PDZ3; experiment: FP
Par3 PDZ1 = Par3 PDZ1 (rat, UniProt Q9Z340 1-1337); experiment: FP
Par3 PDZ2 = Par3 PDZ2 (Rattus norvegicus); experiment: FP
Par3 PDZ3 G600,602 A = Par3 PDZ3 G600,602 A (rat, UniProt Q9Z340 582-685, G600,602 A (G600A) | G600,602 A (G602A)); experiment: FP
Chain of Par3 PDZ3 G600,602 A (Q9Z340 582-685 G600A/G602A): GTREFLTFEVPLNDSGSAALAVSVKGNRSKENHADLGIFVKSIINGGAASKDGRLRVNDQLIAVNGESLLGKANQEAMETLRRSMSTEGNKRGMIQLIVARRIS

Par3 PDZ3 [4] = molecular target: T1, Par3 PDZ3; experiment: FP; 25% 1,6-hexanediol
Par3 PDZ3 [5] = molecular target: T1, Par3 PDZ3; experiment: FP; 0% 1,6-hexanediol

T1 sequence (Q9Z340 582-685): as the sequence (Q9Z340 582-685 G600A/G602A) above, with A19G, A21G counted along it
Chain of Par3 PDZ1 (Q9Z340 whole entry): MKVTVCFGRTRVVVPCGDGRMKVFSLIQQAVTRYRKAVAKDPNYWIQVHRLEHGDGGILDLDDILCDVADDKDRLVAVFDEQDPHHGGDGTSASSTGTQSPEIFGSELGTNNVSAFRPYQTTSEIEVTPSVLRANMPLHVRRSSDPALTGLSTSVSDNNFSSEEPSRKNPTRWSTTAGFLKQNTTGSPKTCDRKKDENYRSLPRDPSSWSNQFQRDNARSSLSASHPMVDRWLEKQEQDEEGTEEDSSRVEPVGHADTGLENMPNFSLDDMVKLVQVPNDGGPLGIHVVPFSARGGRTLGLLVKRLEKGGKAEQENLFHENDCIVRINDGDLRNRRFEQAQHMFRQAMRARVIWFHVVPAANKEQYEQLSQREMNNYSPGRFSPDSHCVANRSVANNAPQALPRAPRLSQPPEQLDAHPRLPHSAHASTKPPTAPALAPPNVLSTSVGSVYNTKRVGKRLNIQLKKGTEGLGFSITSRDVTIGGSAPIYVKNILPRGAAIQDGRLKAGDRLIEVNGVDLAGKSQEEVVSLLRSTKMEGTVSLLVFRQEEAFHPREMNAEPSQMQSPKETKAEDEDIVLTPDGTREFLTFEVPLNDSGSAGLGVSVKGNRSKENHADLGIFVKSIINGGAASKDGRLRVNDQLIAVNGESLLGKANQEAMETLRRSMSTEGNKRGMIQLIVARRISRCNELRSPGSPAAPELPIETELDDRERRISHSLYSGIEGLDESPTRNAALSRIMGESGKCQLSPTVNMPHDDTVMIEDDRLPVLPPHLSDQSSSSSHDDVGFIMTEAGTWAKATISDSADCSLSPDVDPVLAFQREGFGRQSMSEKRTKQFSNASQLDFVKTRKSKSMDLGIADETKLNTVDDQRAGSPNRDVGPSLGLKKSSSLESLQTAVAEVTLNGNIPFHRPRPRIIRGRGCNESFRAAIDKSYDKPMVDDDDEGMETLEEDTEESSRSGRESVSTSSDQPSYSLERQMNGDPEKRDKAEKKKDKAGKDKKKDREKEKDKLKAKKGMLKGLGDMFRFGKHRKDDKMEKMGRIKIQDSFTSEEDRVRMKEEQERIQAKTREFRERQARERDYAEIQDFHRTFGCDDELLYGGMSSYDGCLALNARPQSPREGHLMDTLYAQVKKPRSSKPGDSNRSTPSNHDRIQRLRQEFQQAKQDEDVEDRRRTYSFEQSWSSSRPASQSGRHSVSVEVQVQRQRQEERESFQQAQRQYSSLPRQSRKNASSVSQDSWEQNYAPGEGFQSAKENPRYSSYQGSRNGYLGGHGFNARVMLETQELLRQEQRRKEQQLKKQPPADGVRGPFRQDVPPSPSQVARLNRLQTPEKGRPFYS
Chain of Par3 PDZ2 (Rattus norvegicus) (chain, as listed by the source): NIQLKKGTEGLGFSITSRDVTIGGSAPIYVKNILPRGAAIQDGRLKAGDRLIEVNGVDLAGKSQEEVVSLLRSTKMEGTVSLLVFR

Row | Binder | Kd (Par3 PDZ3 [1]) [µM] | Kd (Par3 PDZ3 [2]) [µM] | Kd (Par3 PDZ3 [3]) [µM] | Kd (Par3 PDZ1) [µM] | Kd (Par3 PDZ2) [µM] | Kd (Par3 PDZ3 G600,602 A) [µM] | Kd (Par3 PDZ3 [4]) [µM] | Kd (Par3 PDZ3 [5]) [µM]
1 | LEEDGTIITL (also: FITC label, position not given here) [FITC-labeled Par6β PBM peptide] | 4.9 | 9.7 | 1.1 | 104 | 161 | 20 | 22 | 1.1
2 | VEEHGPAITL (also: FITC label, position not given here) [FITC-labeled Par6γ PBM peptide] | – | – | 1.3 | – | – | – | – | –
3 | MRGDVSGFSL (also: FITC label, position not given here) [FITC-labeled Par6α PBM peptide] | – | – | 172 | – | – | – | – | –
